Laboratory results: article PMC3485013, “Rubber Elongation Factor (REF), a Major Allergen Component in Hevea brasiliensis Latex Has Amyloid Properties” (PLoS ONE, 2012)

Biological target: the molecule itself
Assay: aggregation of the purified protein in solution (visible precipitation; aggregates examined by Congo red, CD, ATR-FTIR, TEM, WAXS); protein alone at 20 µM in 1x PBS pH 7.4, 37°C, 3 h, kept at 4°C (legend of Figure 2C: 50 µM)

B1: Rubber Elongation Factor (REF), recombinant 6His-REF (natural protein, Hevea brasiliensis, UniProt P15252 1-138, looked up)
chain: MAEDEDNQQGQGEGLKYLGFVQDAATYAVTTFSNVYLFAKDKSGPLQPGVDIIEGPVKNVAVPLYNRFSYIPNGALKFVDSTVVASVTIIDRSLPPIVKDASIQVVSAIRAAPEAARSLASSLPGQTKILAKVFYGEN
notes: gene synthesised after codon optimisation from GenBank X56535; No removal of the tag is described, and the same preparation is detected by anti-His antibody in the lipid dot blots; also called Hevb1; HbREF; source: E. coli BL21 (DE3) pLysS Gold, inclusion bodies, purified (Ni-NTA in 8 M urea, dialysed against buffer A); not shown: His6, N-terminal, kept
B1: binds.
